“Also recorded” adds a separate entry of the source. Where no end group is shown, it is not given here. MBP = maltose-binding protein (N-terminal fusion tag)

For one data set, the system named is RAD51–ssDNA NPF. Description: EMSA of MBP-fusion TR2 mutants binding the RAD51-ssDNA NPF. Further details: species or system human. The following applies: for binding of MBP-TR2 mutant to the RAD51 NPF: ssDNA 60 nt, His6-MBP-TR2 5 min, room temperature, 25 mM HEPES pH 7.5, 150 mM NaCl, 2 mM ATP, 5 mM CaCl2, repeated once. The source says: The local resolution at the TR2 site was lower than for the global map, which complicated the model fitting for the peptide. Fitting with the correct sequence register was guided by the density of the large side chains in the highly conserved TR2 region 3296-KAFQPPR-3302 (Fig. 3A). To validate our molecular model of BRCA2 TR2 association with the RAD51 NPF, we performed a mutational analysis of the RAD51–TR2 interface, targeting residues that are predicted by the structure to be important for the RAD51-TR2 interaction (Fig. 4A, B). We generated TR2 mutants as Maltose-Binding Protein (MBP) fusion proteins (Supplementary Fig. 1) and measured by EMSA their ability to bind the RAD51 NPF.
Fig. 4 Structure-based mutational analysis of the BRCA2 TR2-RAD51 interface. A Multiple sequence alignment of BRCA2 TR2 sequences, coloured according to residue type (Hse: Homo sapiens; Gga: Gallus gallus; Xla: Xenopus laevis; Dre: […]). B Drawing of TR2 and RAD51 amino acids targeted for mutagenesis. Drawing style as in D–F of Fig. 3. C–E EMSA analysis of RAD51–ssDNA NPF binding by MBP-fusion TR2 mutants K3296A, Q3299A, R3302A (C); 3A (K3296A, Q3299, R3302A), 3D (K3296D, Q3299D, R3302D) (D); S3291A, F3298A (E). The TR2 peptide was used as a control. EMSA experiments repeated once. Source data are provided as a Source Data file.
An E.coli codon-optimised gene fragment encoding residues D3260 to Y3308 of human BRCA2 was synthesised (IDT) with flanking BamHI and HindIII restriction sites and ligated into the pMAT11 expression vector[44] (Addgene plasmid #112592) to express BRCA2 TR2 as a dual-tag His6-MBP (Maltose-Binding Protein) fusion protein. pMAT11 constructs for expression of BRCA2 TR2 mutants S3291A, F3298A, K3296A, Q3299A, R3302A, the triple K3296, Q3299, […] alanine (3A) and aspartic acid (3D) mutants were produced in the same way as the wild-type construct.
All His6-MBP-BRCA2 TR2 fusion proteins were expressed and purified in an identical manner. pMat11-His6-MBP-TR2 constructs were transformed into E.coli BL21(DE3)Rosetta2 and transformed cells were used to inoculate 2YT growth medium supplemented with 50 μg/ml ampicillin. Cells were cultured until an OD600 reading of 0.7 before induction with 0.5 mM IPTG. Cell pellets were resuspended in resuspension buffer and sonicated to lyse cells in the presence of EDTA-free protease inhibitor. Cell lysate supernatant was loaded on a 5-ml HisTrap HP column pre-equilibrated with His Buffer A before elution in 40% His Buffer B. Fractions containing the His6-MBP-BRCA2 TR2 protein were pooled and purified further by size-exclusion chromatography using a 16/600 Superdex S75 pg (Cytiva) column pre-equilibrated in storage buffer. To minimise the presence of proteolytically degraded protein, a single fraction at the front of the elution peak containing His6-MBP-TR2 was retained and concentrated to at least 100 μM before flash freezing in liquid nitrogen and storage at −80 °C.
To assess RAD51 nucleoprotein (NPF) formation, wild-type and mutant RAD51 proteins were incubated with DNA in buffer: 25 mM HEPES pH 7.5, 150 mM NaCl, 2 mM DTT, 2 mM ATP, 5 mM CaCl2 for 15 minutes at room temperature. For filament binding of the TR2 peptide or His6-MBP-TR2 protein, the RAD51 NPFs were incubated with TR2 for further 5 minutes at room temperature. For filament binding of BRC4, the BRC4 peptide was pre-mixed with RAD51 for 10 minutes at room temperature before addition of DNA. For experiments with mono-streptavidin (mSA)-capped DNA, mSA (Sigma) was added in 5× molar excess of biotin labels for 15 minutes at room temperature prior to the addition of RAD51. Concentrations are provided in figures and DNA sequences for each experiment are reported in Supplementary Table 1.
Before electrophoresis, samples were mixed with a 0.5:1 volume of 50% (w/v) sucrose solution and analysed on a pre-run 0.5% (w/v) agarose gel in 0.5× TB buffer at 35 V for 2.5 hours at 4 °C. […]
Background: In EMSA bound probe runs differently from free probe, usually more slowly.

In data set [1] the target is T1, RAD51;BRCA2 TR2 peptide (Homo sapiens;Homo sapiens, UniProt Q06609;P51587 1-339;, |). Description: cryo-EM micrographs; TR2 1:0.5; filament bundling; EMSA: 25 mM HEPES pH 7.5, 150 mM NaCl, 2 mM DTT, 2 mM ATP, 5 mM CaCl2, room temperature; SPR: 25 mM HEPES pH 7.4, 100 mM NaCl, 2 mM DTT, 2 mM ATP, 5 mM CaCl2, 5 mM MgCl2. The following applies: tags: untagged (co-expressed with His6-MBP-BRC4, pMBP4-RAD51);.

Data set [2] deals with T1, RAD51;BRCA2 TR2 peptide. The data set can be described thus: SPR; TR2 on preformed filament; ATP, Ca2+, Mg2+; EMSA: 25 mM HEPES pH 7.5, 150 mM NaCl, 2 mM DTT, 2 mM ATP, 5 mM CaCl2, room temperature; SPR: 25 mM HEPES pH 7.4, 100 mM NaCl, 2 mM DTT, 2 mM ATP, 5 mM CaCl2, 5 mM MgCl2. The following applies: tags: untagged (co-expressed with His6-MBP-BRC4, pMBP4-RAD51);.
For data set [3], the target named is T1, RAD51;BRCA2 TR2 peptide. The data set can be described thus: EMSA; TR2 enhances filament; ATP, Ca2+; EMSA: 25 mM HEPES pH 7.5, 150 mM NaCl, 2 mM DTT, 2 mM ATP, 5 mM CaCl2, room temperature; SPR: 25 mM HEPES pH 7.4, 100 mM NaCl, 2 mM DTT, 2 mM ATP, 5 mM CaCl2, 5 mM MgCl2. The following applies: tags: untagged (co-expressed with His6-MBP-BRC4, pMBP4-RAD51);.
In data set [4] the target is T2, human RAD51, wild type (human, UniProt Q06609 1-339).
T2 construct: RAD51, human DNA-strand exchange protein; In all assays RAD51 stood as a nucleoprotein filament on ss- or dsDNA with ATP and CaCl2; probably the whole, untagged protein; also called WT RAD51; RAD51 NPF; source: E. coli BL21(DE3)Rosetta2, co-expressed with His6-MBP-BRCA2 BRC4, purified (HisTrap, heparin, SEC)
T2 sequence: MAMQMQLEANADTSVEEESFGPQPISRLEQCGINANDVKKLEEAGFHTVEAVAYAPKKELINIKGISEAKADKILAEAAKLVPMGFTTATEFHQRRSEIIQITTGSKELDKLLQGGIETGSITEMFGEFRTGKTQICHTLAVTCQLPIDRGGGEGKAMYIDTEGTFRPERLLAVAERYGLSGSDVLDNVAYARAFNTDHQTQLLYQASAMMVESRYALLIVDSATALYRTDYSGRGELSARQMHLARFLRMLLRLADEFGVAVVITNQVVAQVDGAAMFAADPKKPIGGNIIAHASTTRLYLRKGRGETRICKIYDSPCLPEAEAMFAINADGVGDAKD
Description: native gel or EMSA; TR2 peptide titrated on RAD51 NPFs pre-formed on fluorescein-labelled ss- or dsDNA; 25 mM HEPES pH 7.5, 150 mM NaCl, 2 mM DTT, 2 mM ATP, 5 mM CaCl2, room temperature, TR2 added for 5 minutes; 0.5% agarose gel at 4 °C. The following applies: both partners purified.

Data set [5] addresses T2, human RAD51, wild type. The data set can be described thus: native gel or EMSA; His6-MBP-TR2 fusion proteins added for 5 minutes to RAD51–ssDNA NPFs; 25 mM HEPES pH 7.5, 150 mM NaCl, 2 mM DTT, 2 mM ATP, 5 mM CaCl2, room temperature; 0.5% agarose gel. The following applies: both partners purified.

Turning to “F3298A: His6-MBP fusion protein of BRCA2 TR2 mutant F3298A ({His6-MBP}-DDQKNCKKRRALDFLSRLPLPPPVSPICTFVSPAAQKAAQPPRSCGTKY; cysteine pairing not given here)”, the “binding of MBP-TR2 mutant to the RAD51 NPF” value in the data set on RAD51–ssDNA NPF was “abolished TR2 binding to the RAD51 NPF; also recorded: complete loss of TR2 binding”.
Same read-out and setting: to “K3296A: His6-MBP fusion protein of BRCA2 TR2 mutant K3296A ({His6-MBP}-DDQKNCKKRRALDFLSRLPLPPPVSPICTFVSPAAQAAFQPPRSCGTKY; cysteine pairing not given here)” belongs “modest decrease in filament binding”; to “Q3299A: His6-MBP fusion protein of BRCA2 TR2 mutant Q3299A ({His6-MBP}-DDQKNCKKRRALDFLSRLPLPPPVSPICTFVSPAAQKAFAPPRSCGTKY; cysteine pairing not given here)”, “increased association with the filament”.
Still for that read-out and setting: with “R3302A: His6-MBP fusion protein of BRCA2 TR2 mutant R3302A ({His6-MBP}-DDQKNCKKRRALDFLSRLPLPPPVSPICTFVSPAAQKAFQPPASCGTKY; cysteine pairing not given here)” the entry was “modest decrease in filament binding”.
“S3291A: His6-MBP fusion protein of BRCA2 TR2 mutant S3291A ({His6-MBP}-DDQKNCKKRRALDFLSRLPLPPPVSPICTFVAPAAQKAFQPPRSCGTKY; cysteine pairing not given here)”: in the data set on RAD51–ssDNA NPF, the “binding of MBP-TR2 mutant to the RAD51 NPF” value is reported as “drastically reduced”. Further, the “residual binding of MBP-TR2 mutant to the RAD51 NPF” value in the data set with RAD51–ssDNA NPF (ssDNA, Fig. 4E) is “still able to associate with the filament; also recorded: retains a degree of binding to the filament”.

B1: 50-nt dsDNA Cy3 (dsDNA)
DNA 1: CCGACTGACGCTCAACATAGGTACCACACGGCGAGCTCGATGCACCTCCA
DNA 2: TGGAGGTGCATCGAGCTCGCGACAAACCTTCTATGTTGAGCGTCAGTCGG
On to B1, for which, in the data set with RAD51;BRCA2 TR2 peptide [1] (label: 3' Cy3 on strand 1, blunt ends, internal mismatched bubble about 10 nt), the binding result is reported as “binds”.

B2: 60-nt ssDNA biotin (ssDNA)
DNA: ATGGTGTGTGTAGGTTAATGTGAGGAGGAGAGGTGAAGAAGGAGGAGAGAAGAAGGAGGC
On to B2, for which the binding result in the data set with RAD51;BRCA2 TR2 peptide [2] (label: 5' biotin) is given as “binds”.

B3: 60-bp dsDNA FAM (dsDNA)
DNA 1: ATGGTGTGTGTAGGTTAATGTGAGGAGGAGAGGTGAAGAAGGAGGAGAGAAGAAGGAGGC
DNA 2: GCCTCCTTCTTCTCTCCTCCTTCTTCACCTCTCCTCCTCACATTAACCTACACACACCAT
For the molecule B3, the binding result with RAD51;BRCA2 TR2 peptide [3] (label: 5' FAM on strand 1, blunt) was “binds”.

B4: 60-bp dsDNA biotin (dsDNA)
DNA 1: ATGGTGTGTGTAGGTTAATGTGAGGAGGAGAGGTGAAGAAGGAGGAGAGAAGAAGGAGGC
DNA 2: GCCTCCTTCTTCTCTCCTCCTTCTTCACCTCTCCTCCTCACATTAACCTACACACACCAT
In the case of B4, the binding result with RAD51;BRCA2 TR2 peptide [2] (label: 5' biotin on strand 1, blunt) is “binds”.

B5: 60-nt ssDNA FAM (ssDNA)
DNA: ATGGTGTGTGTAGGTTAATGTGAGGAGGAGAGGTGAAGAAGGAGGAGAGAAGAAGGAGGC
As to B5, the binding result with RAD51;BRCA2 TR2 peptide [3] (label: 5' FAM) is “binds”.
As for TTTTTTTTTTTCGTGTGGTACTTTTTTTTTTT (ssDNA) [32-nt ssDNA Cy5], the binding result in the data set with RAD51;BRCA2 TR2 peptide [1] (label: 5' Cy5) is recorded as “binds”.

B6: BRCA2 TR2 peptide spanning amino acids 3260 to 3308 (peptide, UniProt P51587 3260-3308, looked up)
peptide: DDQKNCKKRRALDFLSRLPLPPPVSPICTFVSPAAQKAFQPPRSCGTKY
notes: Only residues 3289 to 3304 are modelled in the PDB entries; source: synthetic peptide (synthesised commercially)
Consider B6, for which, in the data set with human RAD51, wild type [4], the binding result is recorded as “binds”.

B7: His6-MBP-BRCA2 TR2 R3302A (domain or fragment, human, UniProt P51587 3260-3308, looked up)
chain: DDQKNCKKRRALDFLSRLPLPPPVSPICTFVSPAAQKAFQPPASCGTKY
notes: BRCA2, human, TR2 motif, residues D3260 to Y3308; source: E. coli BL21(DE3)Rosetta2, purified (HisTrap, SEC); not shown: His6, N-terminal, kept; MBP, N-terminal, kept
In the case of B7, the binding result in the data set with human RAD51, wild type [5] is listed as “binds”.

B8: His6-MBP-BRCA2 TR2 Q3299A (domain or fragment, human, UniProt P51587 3260-3308, looked up)
chain: DDQKNCKKRRALDFLSRLPLPPPVSPICTFVSPAAQKAFAPPRSCGTKY
notes: as for B7
As to B8, the binding result with human RAD51, wild type [5] was “binds”.

B9: His6-MBP-BRCA2 TR2 K3296A (domain or fragment, human, UniProt P51587 3260-3308, looked up)
chain: DDQKNCKKRRALDFLSRLPLPPPVSPICTFVSPAAQAAFQPPRSCGTKY
notes: as for B7
B9: the binding result with human RAD51, wild type [5] is listed as “binds”.

Values taken from paper PMC10622577, “Structural basis for stabilisation of the RAD51 nucleoprotein filament by BRCA2” (Nature Communications, 2023).
